Source: the supplement of paper PMC9112550, “Optimization of the antimicrobial peptide Bac7 by deep mutational scanning” (BMC Biology, 2022)
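Further: peptides expressed intracellularly from a pBAD plasmid library in pooled LB shake-flask culture, induced with 0.3% L-arabinose, DNA abundance read by NGS, three biological replicates, DESeq2 with apeglm shrinkage.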

The sequences below were run on Escherichia coli TOP10 (assay: shrunken log2 fold change of peptide-encoding DNA abundance (4.5 h post-induction vs induction); higher = less antimicrobial activity (less host growth inhibition)). Conditions: time post-induction: 4.5 h; library: site-saturation at positions 5, 18, 19, 20.
RRIRMRPPRLPRPRPRPMEEPRP was tested, and the “shrunken log2 fold change” value was 2.45. RRIRMRPPRLPRPRPRPMEWPRP was tested, and the “shrunken log2 fold change” value was 0.379. RRIRMRPPRLPRPRPRPMEYPRP was tested, and the “shrunken log2 fold change” value was 0.0305. In the case of RRIRMRPPRLPRPRPRPMGGPRP, the “shrunken log2 fold change” value was 0.131. For RRIRMRPPRLPRPRPRPMGLPRP, the “shrunken log2 fold change” value was 0.0299. With RRIRMRPPRLPRPRPRPMHTPRP the “shrunken log2 fold change” value was 3.3. RRIRMRPPRLPRPRPRPMHWPRP was tested, and the “shrunken log2 fold change” value was -0.0799. In the case of RRIRMRPPRLPRPRPRPMIKPRP, the “shrunken log2 fold change” value was -0.262. With RRIRMRPPRLPRPRPRPMIPPRP the “shrunken log2 fold change” value was -0.448. With RRIRMRPPRLPRPRPRPMLLPRP the “shrunken log2 fold change” value was 0.0485. With RRIRMRPPRLPRPRPRPMLYPRP the “shrunken log2 fold change” value was 0.0885. RRIRMRPPRLPRPRPRPMNDPRP was tested, and the “shrunken log2 fold change” value was 0.25. RRIRMRPPRLPRPRPRPMNEPRP was tested, and the “shrunken log2 fold change” value was -0.101. For RRIRMRPPRLPRPRPRPMNKPRP, the “shrunken log2 fold change” value was -0.0775. For RRIRMRPPRLPRPRPRPMPMPRP, the “shrunken log2 fold change” value was 0.194. With RRIRMRPPRLPRPRPRPMQGPRP the “shrunken log2 fold change” value was 0.4. In the case of RRIRMRPPRLPRPRPRPMRPPRP, the “shrunken log2 fold change” value was 1.79. RRIRMRPPRLPRPRPRPMRQPRP was tested, and the “shrunken log2 fold change” value was -0.0415. For RRIRMRPPRLPRPRPRPMRWPRP, the “shrunken log2 fold change” value was 0.539. RRIRMRPPRLPRPRPRPMSDPRP was tested, and the “shrunken log2 fold change” value was -0.095. In the case of RRIRMRPPRLPRPRPRPMSIPRP, the “shrunken log2 fold change” value was -0.0109. For RRIRMRPPRLPRPRPRPMSYPRP, the “shrunken log2 fold change” value was -0.175. With RRIRMRPPRLPRPRPRPMWPPRP the “shrunken log2 fold change” value was 0.0917. In the case of RRIRMRPPRLPRPRPRPMWTPRP, the “shrunken log2 fold change” value was 0.038. In the case of RRIRMRPPRLPRPRPRPMYKPRP, the “shrunken log2 fold change” value was -0.472. With RRIRMRPPRLPRPRPRPMYVPRP the “shrunken log2 fold change” value was 0.115. For RRIRMRPPRLPRPRPRPNAFPRP, the “shrunken log2 fold change” value was 0.344. For RRIRMRPPRLPRPRPRPNAPPRP, the “shrunken log2 fold change” value was -0.0273. For RRIRMRPPRLPRPRPRPNAWPRP, the “shrunken log2 fold change” value was 0.774. In the case of RRIRMRPPRLPRPRPRPNCKPRP, the “shrunken log2 fold change” value was 0.102. RRIRMRPPRLPRPRPRPNDMPRP was tested, and the “shrunken log2 fold change” value was -0.204. In the case of RRIRMRPPRLPRPRPRPNEFPRP, the “shrunken log2 fold change” value was 0.0287. With RRIRMRPPRLPRPRPRPNFHPRP the “shrunken log2 fold change” value was -0.0453. With RRIRMRPPRLPRPRPRPNHRPRP the “shrunken log2 fold change” value was -0.113. In the case of RRIRMRPPRLPRPRPRPNIEPRP, the “shrunken log2 fold change” value was 0.219. With RRIRMRPPRLPRPRPRPNINPRP the “shrunken log2 fold change” value was -0.356. RRIRMRPPRLPRPRPRPNKLPRP was tested, and the “shrunken log2 fold change” value was -0.145. With RRIRMRPPRLPRPRPRPNMHPRP the “shrunken log2 fold change” value was -0.0148. For RRIRMRPPRLPRPRPRPNNHPRP, the “shrunken log2 fold change” value was -0.178. With RRIRMRPPRLPRPRPRPNNIPRP the “shrunken log2 fold change” value was -0.564. With RRIRMRPPRLPRPRPRPNNPPRP the “shrunken log2 fold change” value was 0.395. With RRIRMRPPRLPRPRPRPNPQPRP the “shrunken log2 fold change” value was 0.279. In the case of RRIRMRPPRLPRPRPRPNPWPRP, the “shrunken log2 fold change” value was 0.123. For RRIRMRPPRLPRPRPRPNSNPRP, the “shrunken log2 fold change” value was -0.177. With RRIRMRPPRLPRPRPRPNSWPRP the “shrunken log2 fold change” value was 0.122. With RRIRMRPPRLPRPRPRPNTIPRP the “shrunken log2 fold change” value was -0.3. With RRIRMRPPRLPRPRPRPNVEPRP the “shrunken log2 fold change” value was 0.0231. In the case of RRIRMRPPRLPRPRPRPNVNPRP, the “shrunken log2 fold change” value was 0.148. For RRIRMRPPRLPRPRPRPNWYPRP, the “shrunken log2 fold change” value was -0.0601. In the case of RRIRMRPPRLPRPRPRPNYPPRP, the “shrunken log2 fold change” value was -0.445. With RRIRMRPPRLPRPRPRPNYRPRP the “shrunken log2 fold change” value was -0.133. RRIRMRPPRLPRPRPRPPAKPRP was tested, and the “shrunken log2 fold change” value was 1.06. RRIRMRPPRLPRPRPRPPASPRP was tested, and the “shrunken log2 fold change” value was 1.65. In the case of RRIRMRPPRLPRPRPRPPAVPRP, the “shrunken log2 fold change” value was 1.44. For RRIRMRPPRLPRPRPRPPCPPRP, the “shrunken log2 fold change” value was 0.564. In the case of RRIRMRPPRLPRPRPRPPCQPRP, the “shrunken log2 fold change” value was 0.505. RRIRMRPPRLPRPRPRPPCSPRP was tested, and the “shrunken log2 fold change” value was 0.489. In the case of RRIRMRPPRLPRPRPRPPDAPRP, the “shrunken log2 fold change” value was 1.53. RRIRMRPPRLPRPRPRPPEDPRP was tested, and the “shrunken log2 fold change” value was 1.66. With RRIRMRPPRLPRPRPRPPEIPRP the “shrunken log2 fold change” value was 0.48. For RRIRMRPPRLPRPRPRPPEPPRP, the “shrunken log2 fold change” value was 0.296. With RRIRMRPPRLPRPRPRPPFAPRP the “shrunken log2 fold change” value was 1.07. With RRIRMRPPRLPRPRPRPPFCPRP the “shrunken log2 fold change” value was 0.0505. For RRIRMRPPRLPRPRPRPPFGPRP, the “shrunken log2 fold change” value was 0.789. For RRIRMRPPRLPRPRPRPPFYPRP, the “shrunken log2 fold change” value was -0.182. In the case of RRIRMRPPRLPRPRPRPPGGPRP, the “shrunken log2 fold change” value was 1.15. For RRIRMRPPRLPRPRPRPPGNPRP, the “shrunken log2 fold change” value was 0.475. RRIRMRPPRLPRPRPRPPIRPRP was tested, and the “shrunken log2 fold change” value was 0.248. RRIRMRPPRLPRPRPRPPKHPRP was tested, and the “shrunken log2 fold change” value was 0.829. For RRIRMRPPRLPRPRPRPPKYPRP, the “shrunken log2 fold change” value was -0.0762. With RRIRMRPPRLPRPRPRPPLDPRP the “shrunken log2 fold change” value was 1.03. With RRIRMRPPRLPRPRPRPPLRPRP the “shrunken log2 fold change” value was 0.852. For RRIRMRPPRLPRPRPRPPMPPRP, the “shrunken log2 fold change” value was 0.703. RRIRMRPPRLPRPRPRPPQPPRP was tested, and the “shrunken log2 fold change” value was 1.37. For RRIRMRPPRLPRPRPRPPRMPRP, the “shrunken log2 fold change” value was 0.893.
